This is an account of results in article PMC8376870, “Auto-inhibitory intramolecular S5/S6 interaction in the TRPV6 channel regulates breast cancer cell migration and invasion” (Communications Biology, 2021).

The assay deals with T1, GST-G511-V540 (TRPV6 S5 fragment) (human, UniProt Q9H1D0 511-540).
T1 construct: also called S5 (G511-V540); source: E. coli, purified (GST beads)
Put plainly: pull-down; purified His- or GST-tagged peptides from E. coli incubated together overnight at 4 °C, 50% beads (GST or Ni-NTA) added, washed with 1% NP-40, western blot. Particulars: both partners purified.

T1 sequence (Q9H1D0 511-540): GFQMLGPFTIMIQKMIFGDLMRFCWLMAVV

B1: His-MBP-A603-L632 (TRPV6 S6 fragment) (domain or fragment)
chain: not shown
notes: also called S6 (A603-L632); source: E. coli, purified (Ni-NTA beads)
In the case of B1, the binding result is on record as “binds”.
